Results from the supplement of paper PMC5998384.

Key:
HeLa Kyoto [1] = experiment: thermal stability score vs G1/S (z-score of summed log2 fold changes over temperatures); higher = more thermally stable than in G1/S
HeLa Kyoto [2] = experiment: melting temperature (median over replicates), in situ; higher = more thermally stable
HeLa Kyoto [3] = experiment: solubility change mitosis vs G1/S (difference of NP-40 vs SDS log2 ratios) (log2 ratio difference); higher = more soluble in mitosis
HeLa Kyoto [4] = experiment: solubility in G1/S (NP-40 vs SDS abundance) (log2 ratio); higher = more soluble; details: cell cycle stage: G1/S
[5] = cell cycle stage: early G1 (4.5 h after nocodazole release)
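Wherever melting temperature (median over replicates), in situ is given: HeLa Kyoto cells synchronized by double thymidine or nocodazole block, proteins quantified by TMT10plex mass spectrometry, three independent biological replicates.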
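Wherever solubility change mitosis vs G1/S (difference of NP-40 vs SDS log2 ratios) is given: synchronized HeLa Kyoto cells (double thymidine block for G1/S, nocodazole release for mitosis), protein amounts in NP-40 versus SDS lysates quantified by mass spectrometry, three biological replicates.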
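Wherever solubility in G1/S (NP-40 vs SDS abundance) is given: HeLa Kyoto cells arrested at G1/S by double thymidine block, proteins quantified by TMT10plex mass spectrometry in mild NP-40 versus SDS extracts, three biological replicates.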
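Wherever thermal stability score vs G1/S (z-score of summed log2 fold changes over temperatures) is given: synchronized HeLa Kyoto cells, proteins quantified by TMT10plex mass spectrometry, three biological replicates, mitosis taken 0.5 h after nocodazole release, G1/S directly after double thymidine block.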

Row | Sequence | thermal stability score (HeLa Kyoto [1]; [5]) | thermal stability score (HeLa Kyoto [1]; cell cycle stage: mitosis) | melting temperature (HeLa Kyoto [2]; cell cycle stage: G1/S) | melting temperature (HeLa Kyoto [2]; cell cycle stage: mitosis) | solubility change mitosis (log2) (HeLa Kyoto [3]) | solubility in G1/S (log2) (HeLa Kyoto [4])
1 | MAAAYLDPNLNHTPNSSTKTHLGTGMERSPGAMERVLKVFHYFESNSEPTTWASIIRHGDATDVRGIIQKIVDSHKVKHVACYGFRLSHLRSEEVHWLHVDMGVSSVREKYELAHPPEEWKYELRIRYLPKGFLNQFTEDKPTLNFFYQQVKSDYMLEIADQVDQEIALKLGCLEIRRSYWEMRGNALEKKSNYEVLEKDVGLKRFFPKSLLDSVKAKTLRKLIQQTFRQFANLNREESILKFFEILSPVYRFDKECFKCALGSSWIISVELAIGPEEGISYLTDKGCNPTHLADFTQVQTIQYSNSEDKDRKGMLQLKIAGAPEPLTVTAPSLTIAENMADLIDGYCRLVNGTSQSFIIRPQKEGERALPSIPKLANSEKQGMRTHAVSVSETDDYAEIIDEEDTYTMPSTRDYEIQRERIELGRCIGEGQFGDVHQGIYMSPENPALAVAIKTCKNCTSDSVREKFLQEALTMRQFDHPHIVKLIGVITENPVWIIMELCTLGELRSFLQVRKYSLDLASLILYAYQLSTALAYLESKRFVHRDIAARNVLVSSNDCVKLGDFGLSRYMEDSTYYKASKGKLPIKWMAPESINFRRFTSASDVWMFGVCMWEILMHGVKPFQGVKNNDVIGRIENGERLPMPPNCPPTLYSLMTKCWAYDPSRRPRFTELKAQLSTILEEEKAQQEERMRMESRRQATVSWDSGGSDEAPPKPSRPGYPSPRSSEGFYPSPQHMVQTNHYQVSGYPGSHGITAMAGSIYPGQASLLDQTDSWNHRPQEIAMWQPNVEDSTVLDLRGIGQVLPTHLMEERLIRQQQEMEEDQRWLEKEERFLKPDVRLSRGSIDREDGSLQGPIGNQHIYQPVGKPDPAAPPKKPPRPGAPGHLGSLASLSSPADSYNEGVKLQPQEISPPPTANLDRSNDKVYENVTGLVKAVIEMSSKIQPAPPEEYVPMVKEVGLALRTLLATVDETIPLLPASTHREIEMAQKLLNSDLGELINKMKLAQQYVMTSLQQEYKKQMLTAAHALAVDAKNLLDVIDQARLKMLGQTRPH [PTK2] | 0.562 | 0.0674 | 53 °C | 53.2 °C | -0.0593 | -0.0233
2 | MAACEGRRSGALGSSQSDFLTPPVGGAPWAVATTVVMYPPPPPPPHRDFISVTLSFGENYDNSKSWRRRSCWRKWKQLSRLQRNMILFLLAFLLFCGLLFYINLADHWKALAFRLEEEQKMRPEIAGLKPANPPVLPAPQKADTDPENLPEISSQKTQRHIQRGPPHLQIRPPSQDLKDGTQEEATKRQEAPVDPRPEGDPQRTVISWRGAVIEPEQGTELPSRRAEVPTKPPLPPARTQGTPVHLNYRQKGVIDVFLHAWKGYRKFAWGHDELKPVSRSFSEWFGLGLTLIDALDTMWILGLRKEFEEARKWVSKKLHFEKDVDVNLFESTIRILGGLLSAYHLSGDSLFLRKAEDFGNRLMPAFRTPSKIPYSDVNIGTGVAHPPRWTSDSTVAEVTSIQLEFRELSRLTGDKKFQEAVEKVTQHIHGLSGKKDGLVPMFINTHSGLFTHLGVFTLGARADSYYEYLLKQWIQGGKQETQLLEDYVEAIEGVRTHLLRHSEPSKLTFVGELAHGRFSAKMDHLVCFLPGTLALGVYHGLPASHMELAQELMETCYQMNRQMETGLSPEIVHFNLYPQPGRRDVEVKPADRHNLLRPETVESLFYLYRVTGDRKYQDWGWEILQSFSRFTRVPSGGYSSINNVQDPQKPEPRDKMESFFLGETLKYLFLLFSDDPNLLSLDAYVFNTEAHPLPIWTPA [MAN1B1] | 0.594 | 0.346 | 51.6 °C | 52.1 °C | -0.189 | 0.19
3 | MAACRYCCSCLRLRPLSDGPFLLPRRDRALTQLQVRALWSSAGSRAVAVDLGNRKLEISSGKLARFADGSAVVQSGDTAVMVTAVSKTKPSPSQFMPLVVDYRQKAAAAGRIPTNYLRREIGTSDKEILTSRIIDRSIRPLFPAGYFYDTQVLCNLLAVDGVNEPDVLAINGASVALSLSDIPWNGPVGAVRIGIIDGEYVVNPTRKEMSSSTLNLVVAGAPKSQIVMLEASAENILQQDFCHAIKVGVKYTQQIIQGIQQLVKETGVTKRTPQKLFTPSPEIVKYTHKLAMERLYAVFTDYEHDKVSRDEAVNKIRLDTEEQLKEKFPEADPYEIIESFNVVAKEVFRSIVLNEYKRCDGRDLTSLRNVSCEVDMFKTLHGSALFQRGQTQVLCTVTFDSLESGIKSDQVITAINGIKDKNFMLHYEFPPYATNEIGKVTGLNRRELGHGALAEKALYPVIPRDFPFTIRVTSEVLESNGSSSMASACGGSLALMDSGVPISSAVAGVAIGLVTKTDPEKGEIEDYRLLTDILGIEDYNGDMDFKIAGTNKGITALQADIKLPGIPIKIVMEAIQQASVAKKEILQIMNKTISKPRASRKENGPVVETVQVPLSKRAKFVGPGGYNLKKLQAETGVTISQVDEETFSVFAPTPSAMHEARDFITEICKDDQEQQLEFGAVYTATITEIRDTGVMVKLYPNMTAVLLHNTQLDQRKIKHPTALGLEVGQEIQVKYFGRDPADGRMRLSRKVLQSPATTVVRTLNDRSSIVMGEPISQSSSNSQ [PNPT1] | 0.177 | 1.84 | 49.8 °C | 50 °C | -0.154 | 0.0945
4 | MAAEQDPEARAAARPLLTDLYQATMALGYWRAGRARDAAEFELFFRRCPFGGAFALAAGLRDCVRFLRAFRLRDADVQFLASVLPPDTDPAFFEHLRALDCSEVTVRALPEGSLAFPGVPLLQVSGPLLVVQLLETPLLCLVSYASLVATNAARLRLIAGPEKRLLEMGLRRAQGPDGGLTASTYSYLGGFDSSSNVLAGQLRGVPVAGTLAHSFVTSFSGSEVPPDPMLAPAAGEGPGVDLAAKAQVWLEQVCAHLGLGVQEPHPGERAAFVAYALAFPRAFQGLLDTYSVWRSGLPNFLAVALALGELGYRAVGVRLDSGDLLQQAQEIRKVFRAAAAQFQVPWLESVLIVVSNNIDEEALARLAQEGSEVNVIGIGTSVVTCPQQPSLGGVYKLVAVGGQPRMKLTEDPEKQTLPGSKAAFRLLGSDGSPLMDMLQLAEEPVPQAGQELRVWPPGAQEPCTVRPAQVEPLLRLCLQQGQLCEPLPSLAESRALAQLSLSRLSPEHRRLRSPAQYQVVLSERLQALVNSLCAGQSP [NAPRT] | 0.14 | -1.8 | 56.9 °C | 56.7 °C | -0.0823 | 0.352
5 | MAAFSEMGVMPEIAQAVEEMDWLLPTDIQAESIPLILGGGDVLMAAETGSGKTGAFSIPVIQIVYETLKDQQEGKKGKTTIKTGASVLNKWQMNPYDRGSAFAIGSDGLCCQSREVKEWHGCRATKGLMKGKHYYEVSCHDQGLCRVGWSTMQASLDLGTDKFGFGFGGTGKKSHNKQFDNYGEEFTMHDTIGCYLDIDKGHVKFSKNGKDLGLAFEIPPHMKNQALFPACVLKNAELKFNFGEEEFKFPPKDGFVALSKAPDGYIVKSQHSGNAQVTQTKFLPNAPKALIVEPSRELAEQTLNNIKQFKKYIDNPKLRELLIIGGVAARDQLSVLENGVDIVVGTPGRLDDLVSTGKLNLSQVRFLVLDEADGLLSQGYSDFINRMHNQIPQVTSDGKRLQVIVCSATLHSFDVKKLSEKIMHFPTWVDLKGEDSVPDTVHHVVVPVNPKTDRLWERLGKSHIRTDDVHAKDNTRPGANSPEMWSEAIKILKGEYAVRAIKEHKMDQAIIFCRTKIDCDNLEQYFIQQGGGPDKKGHQFSCVCLHGDRKPHERKQNLERFKKGDVRFLICTDVAARGIDIHGVPYVINVTLPDEKQNYVHRIGRVGRAERMGLAISLVATEKEKVWYHVCSSRGKGCYNTRLKEDGGCTIWYNEMQLLSEIEEHLNCTISQVEPDIKVPVDEFDGKVTYGQKRAAGGGSYKGHVDILAPTVQELAALEKEAQTSFLHLGYLPNQLFRTF [DDX1] | 0.00991 | 0.413 | 50.7 °C | 50.9 °C | 0.00283 | -0.286
6 | MAAGDGDVKLGTLGSGSESSNDGGSESPGDAGAAAEGGGWAAAALALLTGGGEMLLNVALVALVLLGAYRLWVRWGRRGLGAGAGAGEESPATSLPRMKKRDFSLEQLRQYDGSRNPRILLAVNGKVFDVTKGSKFYGPAGPYGIFAGRDASRGLATFCLDKDALRDEYDDLSDLNAVQMESVREWEMQFKEKYDYVGRLLKPGEEPSEYTDEEDTKDHNKQD [PGRMC2] | -0.577 | 0.992 | 52.3 °C | 53.9 °C | -0.00423 | 0.236
7 | MAAGGDHGSPDSYRSPLASRYASPEMCFVFSDRYKFRTWRQLWLWLAEAEQTLGLPITDEQIQEMKSNLENIDFKMAAEEEKRLRHDVMAHVHTFGHCCPKAAGIIHLGATSCYVGDNTDLIILRNALDLLLPKLARVISRLADFAKERASLPTLGFTHFQPAQLTTVGKRCCLWIQDLCMDLQNLKRVRDDLRFRGVKGTTGTQASFLQLFEGDDHKVEQLDKMVTEKAGFKRAFIITGQTYTRKVDIEVLSVLASLGASVHKICTDIRLLANLKEMEEPFEKQQIGSSAMPYKRNPMRSERCCSLARHLMTLVMDPLQTASVQWFERTLDDSANRRICLAEAFLTADTILNTLQNISEGLVVYPKVIERRIRQELPFMATENIIMAMVKAGGSRQDCHEKIRVLSQQAASVVKQEGGDNDLIERIQVDAYFSPIHSQLDHLLDPSSFTGRASQQVQRFLEEEVYPLLKPYESVMKVKAELCL [ADSL] | -1.75 | -1.49 | 57.2 °C | 57.8 °C | -0.138 | 0.108
